The source of these data is publication PMC5657569 (Molecular cell, 2017).

First the molecules themselves.
B1: CARM1, purified human protein (enzyme, UniProt Q86X55 1-608, looked up)
chain: MAAAAAAVGPGAGGAGSAVPGGAGPCATVSVFPGARLLTIGDANGEIQRHAEQQALRLEVRAGPDSAGIALYSHEDVCVFKCSVSRETECSRVGKQSFIITLGCNSVLIQFATPNDFCSFYNILKTCRGHTLERSVFSERTEESSAVQYFQFYGYLSQQQNMMQDYVRTGTYQRAILQNHTDFKDKIVLDVGCGSGILSFFAAQAGARKIYAVEASTMAQHAEVLVKSNNLTDRIVVIPGKVEEVSLPEQVDIIISEPMGYMLFNERMLESYLHAKKYLKPSGNMFPTIGDVHLAPFTDEQLYMEQFTKANFWYQPSFHGVDLSALRGAAVDEYFRQPVVDTFDIRILMAKSVKYTVNFLEAKEGDLHRIEIPFKFHMLHSGLVHGLAFWFDVAFIGSIMTVWLSTAPTEPLTHWYQVRCLFQSPLFAKAGDTLSGTCLLIANKRQSYDISIVAQVDQTGSKSSNLLDLKNPFFRYTGTTPSPPPGSHYTSPSENMWNTGSTYNLSSGMAVAGMPTAYDLSSVIASGSSVGHNNLIPLANTGIVNHTHSRMGSIMSTGIVQGSSGAQGSGGGSTSAHYAVNSQFTMGGPAISMASPMSIPTNTMHYGS

For assay [1], the target named is p300, purified recombinant protein from baculovirus (human, UniProt Q09472 1-2414). The assay is described as follows: cryo-EM structure.
Assay [2] deals with B1. The assay is described as follows: cryo-EM structure.

Chain of p300, purified recombinant protein from baculovirus (Q09472 whole entry): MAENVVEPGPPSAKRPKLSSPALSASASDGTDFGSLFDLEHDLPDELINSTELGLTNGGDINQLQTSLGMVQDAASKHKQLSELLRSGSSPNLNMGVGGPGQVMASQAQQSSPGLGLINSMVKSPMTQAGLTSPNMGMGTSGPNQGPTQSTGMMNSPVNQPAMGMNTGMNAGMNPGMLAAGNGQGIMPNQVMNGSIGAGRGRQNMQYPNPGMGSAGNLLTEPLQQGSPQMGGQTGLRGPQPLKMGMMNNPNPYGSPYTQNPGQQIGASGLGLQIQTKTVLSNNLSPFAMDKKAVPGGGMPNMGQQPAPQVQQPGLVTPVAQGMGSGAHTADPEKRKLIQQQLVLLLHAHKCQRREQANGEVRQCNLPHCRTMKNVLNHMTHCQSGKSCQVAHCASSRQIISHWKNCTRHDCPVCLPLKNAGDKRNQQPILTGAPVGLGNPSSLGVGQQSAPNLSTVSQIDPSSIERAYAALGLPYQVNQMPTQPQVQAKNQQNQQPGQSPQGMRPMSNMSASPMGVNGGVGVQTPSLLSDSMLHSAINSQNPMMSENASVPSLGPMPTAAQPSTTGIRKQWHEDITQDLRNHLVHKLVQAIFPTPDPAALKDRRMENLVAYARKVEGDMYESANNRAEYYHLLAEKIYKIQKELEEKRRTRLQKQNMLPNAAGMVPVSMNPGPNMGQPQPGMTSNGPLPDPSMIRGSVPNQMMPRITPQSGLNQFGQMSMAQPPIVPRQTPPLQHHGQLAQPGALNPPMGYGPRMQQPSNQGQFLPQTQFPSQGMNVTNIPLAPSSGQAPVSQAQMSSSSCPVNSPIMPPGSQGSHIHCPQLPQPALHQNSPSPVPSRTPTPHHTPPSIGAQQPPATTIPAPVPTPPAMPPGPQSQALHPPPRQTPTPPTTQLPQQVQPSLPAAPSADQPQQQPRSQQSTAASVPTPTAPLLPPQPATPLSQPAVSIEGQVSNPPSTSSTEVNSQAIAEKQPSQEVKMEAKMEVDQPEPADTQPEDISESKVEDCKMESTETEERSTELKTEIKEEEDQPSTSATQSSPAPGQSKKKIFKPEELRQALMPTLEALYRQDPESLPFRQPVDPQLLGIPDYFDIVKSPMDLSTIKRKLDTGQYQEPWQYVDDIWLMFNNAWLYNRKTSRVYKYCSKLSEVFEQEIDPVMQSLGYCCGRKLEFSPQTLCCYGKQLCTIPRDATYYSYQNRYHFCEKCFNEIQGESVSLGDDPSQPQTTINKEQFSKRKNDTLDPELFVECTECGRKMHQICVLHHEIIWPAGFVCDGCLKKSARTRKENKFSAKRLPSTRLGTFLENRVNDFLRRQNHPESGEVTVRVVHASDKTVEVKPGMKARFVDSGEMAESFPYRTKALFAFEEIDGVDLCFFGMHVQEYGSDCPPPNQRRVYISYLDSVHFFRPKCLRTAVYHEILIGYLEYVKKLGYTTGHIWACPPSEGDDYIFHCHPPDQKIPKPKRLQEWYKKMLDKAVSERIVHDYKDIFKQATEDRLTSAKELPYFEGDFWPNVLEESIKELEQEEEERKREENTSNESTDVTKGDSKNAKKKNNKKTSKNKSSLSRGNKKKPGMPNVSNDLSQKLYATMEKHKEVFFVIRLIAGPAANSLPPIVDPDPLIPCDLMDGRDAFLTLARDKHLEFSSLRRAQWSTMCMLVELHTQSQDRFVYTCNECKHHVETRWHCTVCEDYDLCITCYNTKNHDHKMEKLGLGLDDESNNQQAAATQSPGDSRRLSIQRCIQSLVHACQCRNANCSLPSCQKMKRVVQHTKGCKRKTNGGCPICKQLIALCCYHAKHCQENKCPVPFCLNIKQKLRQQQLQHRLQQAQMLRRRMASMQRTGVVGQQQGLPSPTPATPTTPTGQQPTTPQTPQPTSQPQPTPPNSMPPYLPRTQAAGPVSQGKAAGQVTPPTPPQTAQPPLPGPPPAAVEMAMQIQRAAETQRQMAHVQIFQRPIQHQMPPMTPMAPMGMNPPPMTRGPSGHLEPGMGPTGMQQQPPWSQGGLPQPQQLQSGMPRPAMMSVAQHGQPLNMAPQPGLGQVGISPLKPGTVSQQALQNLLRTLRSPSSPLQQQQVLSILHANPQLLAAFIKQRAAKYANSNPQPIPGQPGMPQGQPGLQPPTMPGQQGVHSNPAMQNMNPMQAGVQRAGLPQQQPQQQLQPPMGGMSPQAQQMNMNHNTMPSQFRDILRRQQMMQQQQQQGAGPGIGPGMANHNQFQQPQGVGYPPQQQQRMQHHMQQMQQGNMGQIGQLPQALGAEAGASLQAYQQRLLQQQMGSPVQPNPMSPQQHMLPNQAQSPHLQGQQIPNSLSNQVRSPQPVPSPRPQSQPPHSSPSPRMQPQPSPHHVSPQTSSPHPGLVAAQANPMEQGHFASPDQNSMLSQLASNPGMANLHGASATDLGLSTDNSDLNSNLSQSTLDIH

Regarding B1, the binding result in assay [1] is “binds”.

B2: Estrogen receptor alpha (ERα), purified human protein (receptor, UniProt P03372 1-595, looked up)
chain: MTMTLHTKASGMALLHQIQGNELEPLNRPQLKIPLERPLGEVYLDSSKPAVYNYPEGAAYEFNAAAAANAQVYGQTGLPYGPGSEAAAFGSNGLGGFPPLNSVSPSPLMLLHPPPQLSPFLQPHGQQVPYYLENEPSGYTVREAGPPAFYRPNSDNRRQGGRERLASTNDKGSMAMESAKETRYCAVCNDYASGYHYGVWSCEGCKAFFKRSIQGHNDYMCPATNQCTIDKNRRKSCQACRLRKCYEVGMMKGGIRKDRRGGRMLKHKRQRDDGEGRGEVGSAGDMRAANLWPSPLMIKRSKKNSLALSLTADQMVSALLDAEPPILYSEYDPTRPFSEASMMGLLTNLADRELVHMINWAKRVPGFVDLTLHDQVHLLECAWLEILMIGLVWRSMEHPGKLLFAPNLLLDRNQGKCVEGMVEIFDMLLATSSRFRMMNLQGEEFVCLKSIILLNSGVYTFLSSTLKSLEEKDHIHRVLDKITDTLIHLMAKAGLTLQQQHQRLAQLLLILSHIRHMSNKGMEHLYSMKCKNVVPLYDLLLEMLDAHRLHAPTSRGGASVEETDQSHLATAGSTSSHSLQKYYITGEAEGFPATV
As to B2, the binding result in assay [1] and in assay [2] was “binds” in each case.
